# Test results published in article PMC2933939 (Bioorganic & medicinal chemistry, 2010).
# Molecular target: Heat shock protein 90 (Hsp90), purified, native (UniProt P07900 1-732)
# Test: pull-down
binder,measurement,value
"FLVLL (head-to-tail cyclised macrocycle (cyclic pentapeptide)) [Sansalvamide A-amide (San A-amide), compound 1, macrocycle Phe-Leu-Val-Leu-Leu]",IC50,19.7 µM
